Test results from patent US20200262877A1, “ION CHANNEL-BINDING PEPTIDES AND METHODS OF USE THEREOF” (priority 2017, published 2020).

Assays:
Nav1.7 = target: T1, Nav1.7 (Homo sapiens, UniProt Q15858); experiment: cell-based; format: cell-based; details: 100% = no change; for Activity of Nav1.7 with peptide, expressed as a percentage of the reference compound: peptide at 0.2 μM; for Activity of Nav1.7 with peptide (percentage of the reference compound): peptide at 20 μM
T1 construct: host or cells: HEK293 or CHO
T1 sequence (Q15858 whole entry): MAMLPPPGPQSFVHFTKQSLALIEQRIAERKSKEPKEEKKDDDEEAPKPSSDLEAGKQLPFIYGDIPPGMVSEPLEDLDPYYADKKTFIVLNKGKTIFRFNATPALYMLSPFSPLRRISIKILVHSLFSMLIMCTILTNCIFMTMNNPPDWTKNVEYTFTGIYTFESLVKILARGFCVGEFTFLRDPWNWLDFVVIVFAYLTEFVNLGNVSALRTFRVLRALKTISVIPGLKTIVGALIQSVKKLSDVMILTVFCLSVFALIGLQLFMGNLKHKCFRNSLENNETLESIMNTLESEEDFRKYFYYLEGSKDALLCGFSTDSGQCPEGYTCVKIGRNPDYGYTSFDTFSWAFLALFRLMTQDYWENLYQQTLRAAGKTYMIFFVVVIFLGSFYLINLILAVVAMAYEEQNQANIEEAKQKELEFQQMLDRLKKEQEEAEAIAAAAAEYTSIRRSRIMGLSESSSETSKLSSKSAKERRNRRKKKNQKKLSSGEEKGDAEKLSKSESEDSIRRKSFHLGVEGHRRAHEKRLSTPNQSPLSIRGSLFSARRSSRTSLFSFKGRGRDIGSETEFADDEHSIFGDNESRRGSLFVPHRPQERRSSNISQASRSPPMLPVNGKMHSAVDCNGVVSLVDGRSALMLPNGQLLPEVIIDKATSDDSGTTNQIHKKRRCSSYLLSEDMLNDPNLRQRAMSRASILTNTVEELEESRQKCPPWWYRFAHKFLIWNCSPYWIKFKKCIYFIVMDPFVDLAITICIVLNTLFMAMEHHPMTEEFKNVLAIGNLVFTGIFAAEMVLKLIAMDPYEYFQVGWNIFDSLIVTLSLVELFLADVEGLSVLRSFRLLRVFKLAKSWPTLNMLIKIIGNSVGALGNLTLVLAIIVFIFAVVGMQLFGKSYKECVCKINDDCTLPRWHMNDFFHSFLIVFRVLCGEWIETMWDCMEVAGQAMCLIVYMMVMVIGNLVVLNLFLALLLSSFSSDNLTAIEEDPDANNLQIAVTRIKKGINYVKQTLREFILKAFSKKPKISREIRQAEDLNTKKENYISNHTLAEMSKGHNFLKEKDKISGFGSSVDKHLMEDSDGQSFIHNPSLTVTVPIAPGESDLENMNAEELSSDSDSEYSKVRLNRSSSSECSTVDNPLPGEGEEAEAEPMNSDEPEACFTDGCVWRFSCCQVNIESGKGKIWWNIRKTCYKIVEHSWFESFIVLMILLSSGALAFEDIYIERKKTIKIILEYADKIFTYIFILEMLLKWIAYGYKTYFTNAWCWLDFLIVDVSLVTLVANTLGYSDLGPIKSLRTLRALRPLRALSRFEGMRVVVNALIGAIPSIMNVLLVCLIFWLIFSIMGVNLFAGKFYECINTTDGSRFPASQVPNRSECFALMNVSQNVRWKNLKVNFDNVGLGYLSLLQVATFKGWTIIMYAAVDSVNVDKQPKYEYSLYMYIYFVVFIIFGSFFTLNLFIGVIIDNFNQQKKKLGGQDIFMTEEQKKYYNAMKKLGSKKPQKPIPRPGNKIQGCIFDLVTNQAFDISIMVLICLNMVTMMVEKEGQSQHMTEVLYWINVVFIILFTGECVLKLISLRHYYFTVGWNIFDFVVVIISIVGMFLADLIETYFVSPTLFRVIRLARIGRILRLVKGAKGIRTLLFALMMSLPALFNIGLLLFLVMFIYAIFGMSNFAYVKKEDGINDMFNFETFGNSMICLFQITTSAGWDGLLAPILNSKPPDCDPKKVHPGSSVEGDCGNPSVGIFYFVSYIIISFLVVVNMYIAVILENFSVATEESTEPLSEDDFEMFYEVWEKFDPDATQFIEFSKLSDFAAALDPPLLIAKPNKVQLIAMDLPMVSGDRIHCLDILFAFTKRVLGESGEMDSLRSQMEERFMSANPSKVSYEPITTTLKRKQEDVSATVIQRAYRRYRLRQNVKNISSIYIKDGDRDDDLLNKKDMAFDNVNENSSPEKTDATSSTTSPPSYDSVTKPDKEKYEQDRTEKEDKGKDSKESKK
Procedure: (§1) This example describes a method for assaying ion channel activity in cells.
[…] HEK293 or CHO cells from the American Type Culture Collection (ATCC) were transfected with the appropriate ion channel before use. HEK293 cells were grown in Dulbecco's Modified Eagle Medium/Nutrient Mixture F-12, and CHO cells were cultured in Ham's F-12 media. All cultures were supplemented with 10% fetal bovine serum, 100 U/ml penicillin G, 100 μg/ml streptomycin sulfate, and the appropriate selection antibiotics. Prior to use, cells were washed twice with Hank's Balanced Salt Solution, and treated with Accutase cell detachment solution (Sigma-Aldrich). Cells were then washed. Peptides and controls were incubated with cells for at least five minutes.
(§2) Percent inhibition was defined as: (1-(Ipeptide/Icontrol))×100%).
(§3) Percent values were calculated using the following formula: % activation=(IPeptide/Icontrol)×100%, where IPeptide is the current produced by co-application a peptide with agonist, and Icontrol refers to the current produced by stimulation in control. Control used for each ion channel is the reference compound matched to a particular channel, as illustrated in TABLE 10 below.

GABA = experiment: Ion channel panel (IonWorks Barracuda): GABA; format: cell-based; details: 100% = no change, <100% = inhibition
Procedure: as §1
(§4) Peptides were screened in duplicate at final concentrations of 20 μM and 200 nM, as determined by amino acid analysis, and diluted into HEPES buffered physiological saline (HBPS). HEK293 or CHO cells from the American Type Culture Collection (ATCC) were transfected with the appropriate ion channel before use. HEK293 cells were grown in Dulbecco's Modified Eagle Medium/Nutrient Mixture F-12, and CHO cells were cultured in Ham's F-12 media. All cultures were supplemented with 10% fetal bovine serum, 100 U/ml penicillin G, 100 μg/ml streptomycin sulfate, and the appropriate selection antibiotics. Prior to use, cells were washed twice with Hank's Balanced Salt Solution, and treated with Accutase cell detachment solution (Sigma-Aldrich). Cells were then washed. Peptides and controls were incubated with cells for at least five minutes.
as §2, §3

Kv1.3 = target: T2, Kv1.3 (Homo sapiens, UniProt P22001); experiment: cell-based; format: cell-based; details: 100% = no change, <100% = inhibition
T2 construct: host or cells: HEK293 or CHO
Procedure: as §1, §4, §2, §3

Kv1.2 = target: T3, Kv1.2 (Homo sapiens, UniProt P16389); experiment: cell-based; format: cell-based; details: 100% = no change, <100% = inhibition
T3 construct: host or cells: HEK293 or CHO
T3 sequence (P16389 whole entry): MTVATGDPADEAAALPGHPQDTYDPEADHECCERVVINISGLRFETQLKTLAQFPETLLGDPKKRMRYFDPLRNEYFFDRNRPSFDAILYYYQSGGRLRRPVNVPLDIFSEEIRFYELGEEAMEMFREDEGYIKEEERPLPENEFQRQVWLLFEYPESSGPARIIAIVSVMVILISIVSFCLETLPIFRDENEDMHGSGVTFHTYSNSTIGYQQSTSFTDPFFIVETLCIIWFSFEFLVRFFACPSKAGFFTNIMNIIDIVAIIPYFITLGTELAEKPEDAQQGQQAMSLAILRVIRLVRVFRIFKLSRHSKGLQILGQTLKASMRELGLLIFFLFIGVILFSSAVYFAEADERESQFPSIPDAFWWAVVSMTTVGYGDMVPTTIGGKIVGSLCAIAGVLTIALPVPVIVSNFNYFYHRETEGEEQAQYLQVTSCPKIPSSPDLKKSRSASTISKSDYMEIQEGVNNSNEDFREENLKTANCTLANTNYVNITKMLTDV
Procedure: as §1, §4, §2, §3

Kv1.1 = target: T4, Kv1.1 (Homo sapiens, UniProt Q09470); experiment: cell-based; format: cell-based; details: 100% = no change, <100% = inhibition
T4 construct: host or cells: HEK293 or CHO
Procedure: as §1, §4, §2, §3

NR2B = target: T5, NR2B (Homo sapiens, UniProt Q13224); experiment: Ion channel panel (IonWorks Barracuda): NR2B; format: cell-based; details: 100% = no change, <100% = inhibition
T5 construct: host or cells: HEK293 or CHO
Procedure: as §1, §4, §2, §3

Cav2.2 = target: T6, Cav2.2 (Homo sapiens, UniProt Q00975); experiment: cell-based; details: 100% = no change, <100% = inhibition
T6 construct: host or cells: HEK293 or CHO
Procedure: as §1, §4, §2, §3

Kv2.1 = target: T7, Kv2.1 (Homo sapiens, UniProt Q14721); experiment: cell-based; details: 100% = no change, <100% = inhibition
T7 construct: host or cells: HEK293 or CHO
Procedure: as §1, §4, §2, §3

Cav2.1 = target: T8, Cav2.1 (Homo sapiens, UniProt O00555); experiment: cell-based; details: 100% = no change, <100% = inhibition
T8 construct: host or cells: HEK293 or CHO
Procedure: as §1, §4, §2, §3

α3β4 = target: T9, α3β4 (Homo sapiens, UniProt P30926+P32297); experiment: Ion channel panel (IonWorks Barracuda): α3β4; format: cell-based; details: 100% = no change, <100% = inhibition
T9 construct: host or cells: HEK293 or CHO
Procedure: as §1, §4, §2, §3

5HT3a = target: T10, 5HT3a (Homo sapiens, UniProt P46098); experiment: Ion channel panel (IonWorks Barracuda): 5HT3a; format: cell-based
T10 construct: host or cells: HEK293 or CHO
T10 sequence (P46098 whole entry, looked up): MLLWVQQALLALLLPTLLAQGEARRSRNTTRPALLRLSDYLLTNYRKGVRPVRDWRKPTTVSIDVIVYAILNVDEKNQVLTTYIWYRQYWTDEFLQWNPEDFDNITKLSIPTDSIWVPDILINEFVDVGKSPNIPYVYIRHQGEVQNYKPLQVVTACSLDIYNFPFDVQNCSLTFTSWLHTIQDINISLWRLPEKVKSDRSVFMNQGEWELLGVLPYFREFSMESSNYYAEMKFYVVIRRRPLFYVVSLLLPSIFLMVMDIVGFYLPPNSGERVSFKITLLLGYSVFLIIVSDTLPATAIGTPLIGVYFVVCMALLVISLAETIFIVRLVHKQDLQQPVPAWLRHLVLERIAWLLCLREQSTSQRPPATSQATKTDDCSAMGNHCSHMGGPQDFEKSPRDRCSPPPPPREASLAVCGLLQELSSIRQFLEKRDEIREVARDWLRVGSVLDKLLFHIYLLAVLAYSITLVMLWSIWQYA
Procedure: as §1, §4, §2, §3

α4β2 = target: T11, α4β2 (Homo sapiens, UniProt P17787+P43681); experiment: Ion channel panel (IonWorks Barracuda): α4β2; format: cell-based; details: 100% = no change, <100% = inhibition
T11 construct: host or cells: HEK293 or CHO
Procedure: as §1, §4, §2, §3

Kir2.1 = target: T12, Kir2.1 (Homo sapiens, UniProt P63252); experiment: Ion channel panel (IonWorks Barracuda): Kir2.1; format: cell-based; details: 100% = no change, <100% = inhibition
T12 construct: host or cells: HEK293 or CHO
T12 sequence (P63252 whole entry): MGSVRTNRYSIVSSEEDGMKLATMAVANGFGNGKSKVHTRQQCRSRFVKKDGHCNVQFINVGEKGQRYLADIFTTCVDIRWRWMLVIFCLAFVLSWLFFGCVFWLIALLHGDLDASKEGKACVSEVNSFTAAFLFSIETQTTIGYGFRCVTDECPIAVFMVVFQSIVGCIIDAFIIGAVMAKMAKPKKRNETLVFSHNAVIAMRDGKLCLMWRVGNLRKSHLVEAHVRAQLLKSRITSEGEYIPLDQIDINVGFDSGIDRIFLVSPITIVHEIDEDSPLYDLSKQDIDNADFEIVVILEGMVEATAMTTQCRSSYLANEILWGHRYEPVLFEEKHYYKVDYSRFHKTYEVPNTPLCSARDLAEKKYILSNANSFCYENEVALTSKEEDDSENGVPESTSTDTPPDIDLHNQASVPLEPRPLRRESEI
Procedure: as §1, §4, §2, §3

hERG = hERG (Homo sapiens, UniProt Q12809); experiment: in vitro; details: 100% = no change, <100% = inhibition
Procedure: as §1, §4, §2, §3

Nav1.5 = Nav1.5 (Homo sapiens, UniProt Q14524); experiment: in vitro; details: 100% = no change; for Activity of Nav1.5 with peptide, expressed as a percentage of the reference compound: peptide at 0.2 μM; for Activity of Nav1.5 with peptide (percentage of the reference compound): peptide at 20 μM
Chain of Nav1.5 (Q14524 whole entry): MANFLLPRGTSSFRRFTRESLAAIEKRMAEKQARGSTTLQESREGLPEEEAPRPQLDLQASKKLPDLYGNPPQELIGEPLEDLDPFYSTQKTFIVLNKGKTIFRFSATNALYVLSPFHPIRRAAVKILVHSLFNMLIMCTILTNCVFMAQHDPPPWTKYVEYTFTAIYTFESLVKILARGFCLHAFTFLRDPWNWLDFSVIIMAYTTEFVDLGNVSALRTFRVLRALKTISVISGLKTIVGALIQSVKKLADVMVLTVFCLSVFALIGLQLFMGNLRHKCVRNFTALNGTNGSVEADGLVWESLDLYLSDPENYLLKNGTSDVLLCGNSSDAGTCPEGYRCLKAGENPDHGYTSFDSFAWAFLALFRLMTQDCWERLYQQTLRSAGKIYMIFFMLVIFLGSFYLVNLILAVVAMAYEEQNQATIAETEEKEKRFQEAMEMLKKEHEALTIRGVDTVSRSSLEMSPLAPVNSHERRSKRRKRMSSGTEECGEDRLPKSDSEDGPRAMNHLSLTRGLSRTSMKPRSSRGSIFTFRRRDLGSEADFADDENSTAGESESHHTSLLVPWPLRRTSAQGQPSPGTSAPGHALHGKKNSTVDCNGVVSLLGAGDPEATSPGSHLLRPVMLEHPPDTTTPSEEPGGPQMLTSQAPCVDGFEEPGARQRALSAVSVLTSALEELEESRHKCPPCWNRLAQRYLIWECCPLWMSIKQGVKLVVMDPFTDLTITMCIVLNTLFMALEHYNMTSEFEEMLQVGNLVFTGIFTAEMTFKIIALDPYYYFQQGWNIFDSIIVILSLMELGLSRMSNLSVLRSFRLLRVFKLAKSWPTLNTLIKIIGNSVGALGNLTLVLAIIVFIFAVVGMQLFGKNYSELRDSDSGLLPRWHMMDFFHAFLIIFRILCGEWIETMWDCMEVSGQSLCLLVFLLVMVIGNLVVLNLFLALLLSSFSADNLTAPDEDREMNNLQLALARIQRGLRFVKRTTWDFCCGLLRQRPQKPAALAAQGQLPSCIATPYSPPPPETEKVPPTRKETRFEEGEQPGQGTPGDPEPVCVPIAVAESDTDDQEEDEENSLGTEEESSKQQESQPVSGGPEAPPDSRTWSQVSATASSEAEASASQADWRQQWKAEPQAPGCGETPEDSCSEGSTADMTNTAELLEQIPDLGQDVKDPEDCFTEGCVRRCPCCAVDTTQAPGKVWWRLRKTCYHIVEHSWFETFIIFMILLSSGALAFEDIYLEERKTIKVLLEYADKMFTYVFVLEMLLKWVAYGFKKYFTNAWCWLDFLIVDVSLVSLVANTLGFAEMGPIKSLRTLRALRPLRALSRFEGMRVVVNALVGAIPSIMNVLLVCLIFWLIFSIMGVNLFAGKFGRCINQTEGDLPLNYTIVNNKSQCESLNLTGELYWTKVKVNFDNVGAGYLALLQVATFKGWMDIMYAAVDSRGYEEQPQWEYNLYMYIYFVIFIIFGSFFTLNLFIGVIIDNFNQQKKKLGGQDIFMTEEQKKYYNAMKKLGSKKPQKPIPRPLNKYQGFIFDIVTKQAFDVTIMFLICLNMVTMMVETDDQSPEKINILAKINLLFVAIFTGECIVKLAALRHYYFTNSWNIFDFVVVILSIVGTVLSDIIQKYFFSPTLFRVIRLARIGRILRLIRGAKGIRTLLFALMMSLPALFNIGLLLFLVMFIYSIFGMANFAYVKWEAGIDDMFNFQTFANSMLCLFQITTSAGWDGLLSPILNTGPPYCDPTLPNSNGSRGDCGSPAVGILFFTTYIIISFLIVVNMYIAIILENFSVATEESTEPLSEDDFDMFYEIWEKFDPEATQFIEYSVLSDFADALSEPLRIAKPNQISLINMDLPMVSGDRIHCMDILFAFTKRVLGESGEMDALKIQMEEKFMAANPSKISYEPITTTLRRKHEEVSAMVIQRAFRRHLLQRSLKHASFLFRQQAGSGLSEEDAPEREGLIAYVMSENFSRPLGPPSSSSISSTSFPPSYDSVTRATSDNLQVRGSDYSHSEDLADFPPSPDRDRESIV
Procedure: as §1, §4, §2, §3

TRPV1 = target: T13, TRPV1 (Homo sapiens, UniProt Q8NER1); experiment: Ion channel panel (IonWorks Barracuda): TRPV1; format: cell-based; details: 100% = no change, <100% = inhibition
T13 construct: host or cells: HEK293 or CHO
Procedure: as §1, §4, §2, §3

NR2A = target: T14, NR2A (Homo sapiens, UniProt Q12879); experiment: Ion channel panel (IonWorks Barracuda): NR2A; format: cell-based; details: 100% = no change, <100% = inhibition
T14 construct: host or cells: HEK293 or CHO
Procedure: as §1, §4, §2, §3

TRPA1 = target: T15, TRPA1 (Homo sapiens, UniProt O75762); experiment: Ion channel panel (IonWorks Barracuda): TRPA1; format: cell-based; details: 100% = no change, <100% = inhibition
T15 construct: host or cells: HEK293 or CHO
Procedure: as §1, §4, §2, §3

[1] = first of two Nav1.7 columns (probably TP1)
[2] = second of two Nav1.7 columns (probably TP2)
[3] = first of two Nav1.5 columns (probably TP1)
[4] = second of two Nav1.5 columns (probably TP2)

3 (GSSEKDCIKHLQRCRENKDCCSKKCSRRGTNPEKRCR) [compound 3]
Activity of Nav1.7 with peptide, expressed as a percentage of the reference compound (Nav1.7; [1]): 107%
Activity of Nav1.7 with peptide, expressed as a percentage of the reference compound (Nav1.7; [2]): 113%
Activity of Nav1.7 with peptide (percentage of the reference compound) (Nav1.7; [1]): 90%
Activity of Nav1.7 with peptide (percentage of the reference compound) (Nav1.7; [2]): 68%
Activity of GABA with peptide, expressed as a percentage of the reference compound (GABA; peptide at 0.2 μM): 77%
Activity of GABA with peptide (percentage of the reference compound) (GABA; peptide at 20 μM): 111%
Activity of Kv1.3 with peptide, expressed as a percentage of the reference compound (Kv1.3; peptide at 0.2 μM): 92%
Activity of Kv1.3 with peptide (percentage of the reference compound) (Kv1.3; peptide at 20 μM): 87%
Activity of Kv1.2 with peptide, expressed as a percentage of the reference compound (Kv1.2; peptide at 0.2 μM): 88%
Activity of Kv1.2 with peptide (percentage of the reference compound) (Kv1.2; peptide at 20 μM): 45%
Activity of Kv1.1 with peptide, expressed as a percentage of the reference compound (Kv1.1; peptide at 0.2 μM): 99%
Activity of Kv1.1 with peptide (percentage of the reference compound) (Kv1.1; peptide at 20 μM): 73%
Activity of NR2B with peptide, expressed as a percentage of the reference compound (NR2B; peptide at 0.2 μM): 93%
Activity of NR2B with peptide (percentage of the reference compound) (NR2B; peptide at 20 μM): 74%
Activity of Cav2.2 with peptide, expressed as a percentage of the reference compound (Cav2.2; peptide at 0.2 μM): 103%
Activity of Cav2.2 with peptide (percentage of the reference compound) (Cav2.2; peptide at 20 μM): 110%
Activity of Kv2.1 with peptide, expressed as a percentage of the reference compound (Kv2.1; peptide at 0.2 μM): 80%
Activity of Kv2.1 with peptide (percentage of the reference compound) (Kv2.1; peptide at 20 μM): 81%
Activity of Cav2.1 with peptide, expressed as a percentage of the reference compound (Cav2.1; peptide at 0.2 μM): 102%
Activity of Cav2.1 with peptide (percentage of the reference compound) (Cav2.1; peptide at 20 μM): 131%
Activity of a3b4 with peptide, expressed as a percentage of the reference compound (α3β4; peptide at 0.2 μM): 99%
Activity of a3b4 with peptide (percentage of the reference compound) (α3β4; peptide at 20 μM): 92%
Activity of 5HT3a with peptide (percentage of the reference compound) (5HT3a): 98%
Activity of 5HT3a with peptide, expressed as a percentage of the reference compound (5HT3a): 109%
Activity of a4b2 with peptide, expressed as a percentage of the reference compound (α4β2; peptide at 0.2 μM): 93%
Activity of a4b2 with peptide (percentage of the reference compound) (α4β2; peptide at 20 μM): 91%
Activity of Kir2.1 with peptide, expressed as a percentage of the reference compound (Kir2.1; peptide at 0.2 μM): 107%
Activity of Kir2.1 with peptide (percentage of the reference compound) (Kir2.1; peptide at 20 μM): 93%
Activity of hERG with peptide, expressed as a percentage of the reference compound (hERG; peptide at 0.2 μM): 121%
Activity of hERG with peptide (percentage of the reference compound) (hERG; peptide at 20 μM): 81%
Activity of Nav1.5 with peptide, expressed as a percentage of the reference compound (Nav1.5; [3]): 113%
Activity of Nav1.5 with peptide, expressed as a percentage of the reference compound (Nav1.5; [4]): 111%
Activity of Nav1.5 with peptide (percentage of the reference compound) (Nav1.5; [3]): 114%
Activity of Nav1.5 with peptide (percentage of the reference compound) (Nav1.5; [4]): 115%
Activity of TRPV1 with peptide, expressed as a percentage of the reference compound (TRPV1; peptide at 0.2 μM): 107%
Activity of TRPV1 with peptide (percentage of the reference compound) (TRPV1; peptide at 20 μM): 95%
Activity of NR2A with peptide, expressed as a percentage of the reference compound (NR2A; peptide at 0.2 μM): 97%
Activity of NR2A with peptide (percentage of the reference compound) (NR2A; peptide at 20 μM): 100%
Activity of TRPA1 with peptide, expressed as a percentage of the reference compound (TRPA1; peptide at 0.2 μM): 105%
Activity of TRPA1 with peptide (percentage of the reference compound) (TRPA1; peptide at 20 μM): 117%
